Measured values reported in article PMC10583174.

Molecular target: glucagon receptor (GCGR) (mouse (endogenous in primary hepatocytes)) (UniProt Q61606)
Test: radioligand binding

Chain of UniProt Q61606 (Q61606 27-485): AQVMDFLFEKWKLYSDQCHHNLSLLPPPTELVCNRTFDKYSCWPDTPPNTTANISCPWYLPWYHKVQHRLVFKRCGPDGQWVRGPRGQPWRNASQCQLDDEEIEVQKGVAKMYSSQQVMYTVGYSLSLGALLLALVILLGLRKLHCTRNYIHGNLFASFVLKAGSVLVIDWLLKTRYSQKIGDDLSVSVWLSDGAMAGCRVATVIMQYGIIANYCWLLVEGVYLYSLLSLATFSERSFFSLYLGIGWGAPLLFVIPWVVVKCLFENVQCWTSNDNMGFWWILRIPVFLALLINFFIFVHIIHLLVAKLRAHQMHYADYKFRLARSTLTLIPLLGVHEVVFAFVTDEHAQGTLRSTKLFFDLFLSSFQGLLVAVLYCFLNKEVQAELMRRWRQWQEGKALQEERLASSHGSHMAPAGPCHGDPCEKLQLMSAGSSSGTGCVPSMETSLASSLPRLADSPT

fold Kd, GNE LKO over GNE WT hepatocytes: 10 fold
Substance: glucagon (human) (peptide)
